Results from FireProtDB.

Settings: Bombyx mori, whole UniProt chain shown; for Tm / unfolding enthalpy (calorimetric) / unfolding enthalpy (van 't Hoff): Thermal, DSC
[1] = pH 3.5, sodium acetate buffer 50 mM
[2] = pH 4, sodium acetate buffer 50 mM
[3] = pH 4.5, sodium acetate buffer 50 mM
[4] = pH 5, sodium acetate buffer 50 mM
[5] = pH 8, 25 °C, GdnHCl, CD, Tris-HCl 50 mM

B1: Lysozyme wild type, P48816 (protein)
chain: MQKLIIFALVVLCVGSEAKTFTRCGLVHELRKHGFEENLMRNWVCLVEHESSRDTSKTNTNRNGSKDYGLFQINDRYWCSKGASPGKDCNVKCSDLLTDDITKAAKCAKKIYKRHRFDAWYGWKNHCQGSLPDISSC
In the case of B1, the Tm (pH 3, glycine-HCl 50 mM) is reported as 45.2 °C, the “unfolding enthalpy (calorimetric)” value (pH 3, glycine-HCl 50 mM) is reported as 77.6 kcal/mol and the “unfolding enthalpy (van 't Hoff)” value (pH 3, glycine-HCl 50 mM) is reported as 80.9 kcal/mol. The Tm (pH 3.25, glycine-HCl 50 mM) was 51 °C, the “unfolding enthalpy (calorimetric)” value (pH 3.25, glycine-HCl 50 mM) was 81.5 kcal/mol and the “unfolding enthalpy (van 't Hoff)” value (pH 3.25, glycine-HCl 50 mM) was 86.7 kcal/mol. The Tm [1] was 56 °C, the “unfolding enthalpy (calorimetric)” value [1] was 88.5 kcal/mol and the “unfolding enthalpy (van 't Hoff)” value [1] was 91.4 kcal/mol. For the same protein, the Tm [2] was 59.3 °C, the “unfolding enthalpy (calorimetric)” value [2] was 91.9 kcal/mol and the “unfolding enthalpy (van 't Hoff)” value [2] was 92.4 kcal/mol. For the same protein, the Tm [3] was 62.8 °C, the “unfolding enthalpy (calorimetric)” value [3] was 94.1 kcal/mol and the “unfolding enthalpy (van 't Hoff)” value [3] was 93.8 kcal/mol. For the same protein, the Tm [4] was 65.3 °C, the “unfolding enthalpy (calorimetric)” value [4] was 99.7 kcal/mol and the “unfolding enthalpy (van 't Hoff)” value [4] was 95.1 kcal/mol. For the same protein, the denaturant m value [5] was 3.4 kcal/mol/M, the “denaturant midpoint (higher = more stable)” value [5] was 2.39 M and the unfolding free energy [5] was 8.1 kcal/mol.
